Legend:
[1] = substrate: N=C(N)NCCC[C@H](N)C(=O)O; assay: purified protein; settings: 50 mM Tris-HCl pH 8.0, 2.5 mM MgSO4, 0.6 mM PLP, 37 °C
[2] = substrate: N=C(N)NCCC[C@H](N)C(=O)O; assay: arginine decarboxylase activity, agmatine by HPLC; assay type: biochemical, Escherichia coli; settings: 50 mM Tris-HCl pH 8.0, 2.5 mM MgSO4, 0.6 mM PLP, 37 °C
Source text: arginine decarboxylase activity, agmatine by HPLC on SpeA

Row | Protein | Km [1] | kcat [1] | kcat/Km [1] | Km [2] | kcat [2] | kcat/Km [2]
1 | SpeA (Escherichia coli K-12) (protein) MSDDMSMGLPSSAGEHGVLRSMQEVAMSSQEASKMLRTYNIAWWGNNYYDVNELGHISVCPDPDVPEARVDLAQLVKTREAQGQRLPALFCFPQILQHRLRSINAAFKRARESYGYNGDYFLVYPIKVNQHRRVIESLIHSGEPLGLEAGSKAELMAVLAHAGMTRSVIVCNGYKDREYIRLALIGEKMGHKVYLVIEKMSEIAIVLDEAERLNVVPRLGVRARLASQGSGKWQSSGGEKSKFGLAATQVLQLVETLREAGRLDSLQLLHFHLGSQMANIRDIATGVRESARFYVELHKLGVNIQCFDVGGGLGVDYEGTRSQSDCSVNYGLNEYANNIIWAIGDACEENGLPHPTVITESGRAVTAHHTVLVSNIIGVERNEYTVPTAPAEDAPRALQSMWETWQEMHEPGTRRSLREWLHDSQMDLHDIHIGYSSGIFSLQERAWAEQLYLSMCHEVQKQLDPQNRAHRPIIDELQERMADKMYVNFSLFQSMPDAWGIDQLFPVLPLEGLDQVPERRAVLLDITCDSDGAIDHYIDGDGIATTMPMPEYDPENPPMLGFFMVGAYQEILGNMHNLFGDTEAVDVFVFPDGSVEVELSDEGDTVADMLQYVQLDPKTLLTQFRDQVKKTDLDAELQQQFLEEFEAGLYGYTYLEDE | 602 ± 92 µM | 1.79 ± 0.135 s⁻¹ | 2970 M⁻¹ s⁻¹ | – | – | –
2 | SpeA (Escherichia coli K-12; I534D) (protein, C-terminal His-tag; expressed in E. coli BL21(DE3) from pXMJ19; HisTrap purified; tetramer (two dimers)) MSDDMSMGLPSSAGEHGVLRSMQEVAMSSQEASKMLRTYNIAWWGNNYYDVNELGHISVCPDPDVPEARVDLAQLVKTREAQGQRLPALFCFPQILQHRLRSINAAFKRARESYGYNGDYFLVYPIKVNQHRRVIESLIHSGEPLGLEAGSKAELMAVLAHAGMTRSVIVCNGYKDREYIRLALIGEKMGHKVYLVIEKMSEIAIVLDEAERLNVVPRLGVRARLASQGSGKWQSSGGEKSKFGLAATQVLQLVETLREAGRLDSLQLLHFHLGSQMANIRDIATGVRESARFYVELHKLGVNIQCFDVGGGLGVDYEGTRSQSDCSVNYGLNEYANNIIWAIGDACEENGLPHPTVITESGRAVTAHHTVLVSNIIGVERNEYTVPTAPAEDAPRALQSMWETWQEMHEPGTRRSLREWLHDSQMDLHDIHIGYSSGIFSLQERAWAEQLYLSMCHEVQKQLDPQNRAHRPIIDELQERMADKMYVNFSLFQSMPDAWGIDQLFPVLPLEGLDQVPERRAVLLDITCDSDGADDHYIDGDGIATTMPMPEYDPENPPMLGFFMVGAYQEILGNMHNLFGDTEAVDVFVFPDGSVEVELSDEGDTVADMLQYVQLDPKTLLTQFRDQVKKTDLDAELQQQFLEEFEAGLYGYTYLEDE | – | – | – | 623 ± 75 µM | 2.64 ± 0.328 s⁻¹ | 4240 M⁻¹ s⁻¹
3 | SpeA (Escherichia coli K-12; I534S) (protein, C-terminal His-tag; expressed in E. coli BL21(DE3) from pXMJ19; HisTrap purified; tetramer (two dimers)) MSDDMSMGLPSSAGEHGVLRSMQEVAMSSQEASKMLRTYNIAWWGNNYYDVNELGHISVCPDPDVPEARVDLAQLVKTREAQGQRLPALFCFPQILQHRLRSINAAFKRARESYGYNGDYFLVYPIKVNQHRRVIESLIHSGEPLGLEAGSKAELMAVLAHAGMTRSVIVCNGYKDREYIRLALIGEKMGHKVYLVIEKMSEIAIVLDEAERLNVVPRLGVRARLASQGSGKWQSSGGEKSKFGLAATQVLQLVETLREAGRLDSLQLLHFHLGSQMANIRDIATGVRESARFYVELHKLGVNIQCFDVGGGLGVDYEGTRSQSDCSVNYGLNEYANNIIWAIGDACEENGLPHPTVITESGRAVTAHHTVLVSNIIGVERNEYTVPTAPAEDAPRALQSMWETWQEMHEPGTRRSLREWLHDSQMDLHDIHIGYSSGIFSLQERAWAEQLYLSMCHEVQKQLDPQNRAHRPIIDELQERMADKMYVNFSLFQSMPDAWGIDQLFPVLPLEGLDQVPERRAVLLDITCDSDGASDHYIDGDGIATTMPMPEYDPENPPMLGFFMVGAYQEILGNMHNLFGDTEAVDVFVFPDGSVEVELSDEGDTVADMLQYVQLDPKTLLTQFRDQVKKTDLDAELQQQFLEEFEAGLYGYTYLEDE | – | – | – | 691 ± 69 µM | 2.12 ± 0.206 s⁻¹ | 3070 M⁻¹ s⁻¹
